# Test results: the nanobody polyreactivity screen of Harvey et al. (2022)
# Test: yeast display, Sf9 membrane polyspecificity reagent, FACS + sequencing; frameworks hold sequencing errors
# In short: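 Nanobodies from a synthetic yeast display library (Saccharomyces cerevisiae BJ5465), induced 36–48 hours with galactose, were stained 1 hour at 4 °C with 10% biotinylated, detergent-solubilized Sf9 membrane reagent, enriched on streptavidin microbeads, then FACS-sorted. Anti-HA (expression) and streptavidin (reagent binding) fluorescence set low and high (top ~1%) gates. Polyreactivity labels come from the gate of origin. Genes were colony-PCR amplified, MiSeq 2 × 250 sequenced and filtered by CDR length.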
row,Sequence,polyreactivity (PSR sort gate)
1,QVQLVESGGGLVQAGGSLRLSCAASGFTFARYVMGWYRQAPGKERELVAAISWRGTRTFYADSVKGRFTISRDNAKNTVYLQMNSLKPEDTAVYYCAADSRPPKYDYWGQGTQVTVSS,high polyreactivity
2,QVQLVESGGGLVQAGGSLRLSCAASGFTFSWYAMGWYRQAPGKERELVAAISLSGDRTYYADSVKGRFTISRDNANNTVYLQMNSLKPEDTAVYYCVFAFEYWGQGTQVTVSS,low polyreactivity
3,QVQLVDSGGGLVQAGGSLRLSCAASGSIFVRYTMGWYRQAAGKERELVAGIRTNGSSTYYADSVKGRFTISRDNAKNTVYLQMNSLKPEDTAVYYCAARLYRYFRQYDYWGQGTQVTVSS,low polyreactivity
4,QVQLVESGGGLVQAGGSLRLSCAASGSTFSEYAMGCYRQAPGKERELVAAITWDGGSTYYPDSVKGRFTISRDNAKNTVYLQMNSLKPEDTAVYYCATDGWSYSYGYWGQGTQVTVSS,low polyreactivity
5,QVQLVESGGGLVQAGGILRLSCAASGIIFGYNAMGWYRQAPGKERELVAAISYGGGRTYYADSVKGRFTISRDNAKNSVYLQMNSLKPEDTAVYYCAAQYFASRSYGYDYWGQGTQVTVSS,high polyreactivity
6,QVQLVEAGGGLVQAGGSLRLSCAASGSIFVGYAMGWYRPAPGKEREFVAAINYRGGATYYADSVKGRFTISRDNAKNTDYLQMNSLQPEDTAVYYCAVGGWVIYPASLDYWGQGTQVTVSS,low polyreactivity
7,QVQLVESGGGLVQAGGSLRLSCAASGRIFTYYTMAWYRQAPGKERELVAAISWSGGRTYYADSVKGRFTISRDNAKNTVYLQMNSLKPEDTAVYYCARRRAVRFYYWGQGTQVTVSS,high polyreactivity
8,QVQLVESGGGLVQAGGSLRLSCAASGFIFGYNAMGWSRQAPGKERELVAAITWSGGSTYYADSVKGRFTISRDIAKNTVYLQMNSLKPEDTAVYYCNWPGEGDYWGQGTQVTVSS,low polyreactivity
9,QVQLVESGGGLVQAGGSLRLSCAASGSIFRDYTMGWYRQAPGKERELVAAIRQDGGTTTYADSVKGRFTISRDNAKNTVYLQMNSLKPEDTAVYLWGQGTQVTVSS,low polyreactivity
10,QVQLVESGGGLVQAGGSLRLSCAASRSNFQFYAMGWYRQAPGTERELVAVISTRGGSTYYADSVKGRFTISRDKAKNTVYLQMYSLKPEDTAVYYCAAKSVYRMGYWGQGTQVTVSS,high polyreactivity
11,QVQLVESGVGLVQAGGSLRLRCAASGSIFRRYAMGWYRQAPGKERELVARITSSSGTTTYADSVKGRFTISRYNSKNNVYLQMNSLKPEDTAVYYCAAAWWHAYYGKNYYWGQGTQVTVSS,high polyreactivity
12,QVQLVESGVGLVQAGGSLRLSCAASGRTFAYYAMGWNRQAPWKERELVARITSDGSTYYADSVKGRFTISRDNAKNTVYLQMNSLIPEDTAVYYCNARWRYKWKYDHWGQGTQVTVSS,low polyreactivity
13,QDQLVESGGGLVQAGGSLRLSCAASGITFQWYAMGWYRQAPGKEREFVAAITYRGGSTYYADSVKGRFTISRDNAKNTVYLQMNSLKPEDTAVYYCARDDSRLLHPSWLDYWGKGTQVTVSS,high polyreactivity
14,QVQLVESGGGLVQAGGSLRLSCAASGFTFGEYAMGWYRQEPGKERELVATISSGVGTNYADSVKGRFTISRDNAKNTVYLQMNSLKPVDTAVYYCNARGRGSDVRVYVDEGDYWGQGTQVTVSS,low polyreactivity
15,QVQLVESGGGLVQAGGSLRLSCAASGSTFTANAMGWYRQAPGKERELVAAITNSDGSTYYADSVKGRFTISRDNAKNTVYLQMNSLKPEDTAVYYCAAPADSGITQVWQALSDYWGQGTQVTVSS,low polyreactivity
16,QVQLVESGGGLVQAGGSLRLSCAASGSIFFIYAMGWYRQAPGTERELVATITSGGSTYYADSVKGRFTISRDNAKNTVYLQMNSLKPEDTAVYYCAVDEYYAFDYWGQGTQVTVSS,low polyreactivity
17,QVQLQESGGGLVQAGGSLRLICAASGYISSWYPMGWYRQAPGKEREFVGTIAPGATTYYADSVKGRFTIIRDYEKNTVYLQMNSLKPEDTAVYYCAAGPENNDFYSYWGQGTQVTVSS,low polyreactivity
18,QVQLVESGGGLVQAGGSLRLSCAASGSTFTVYAMGWYRQAPGKERELVAAITNGGRTYYADSVKGRFTISRDNAKNTVYLQMNSLKPEDTAVYYCAADVYYDDYLYDYWGQGTQVTVSS,high polyreactivity
19,QVQLVESGGGLVQAGGSLRISCAASGSTFDPYGMGWYRQAPGTERELVAAITSSGRTNYADSVKGRFTISRDNAKNTVYLQMNSLKPEDTAVYYCATRKERYFYRGYEYWGQGTQVTVSS,low polyreactivity
20,QVQLEETGGGLVQAGGSLPLSCAASGRTFRFYTMGWYRQAPGKERELVAVISNGGSTNYADSVKGRFTISRDNANTTVYLQMNSLKPEDTAVYDCAAGWVWSGNDYYYWGQGTQVTVSS,low polyreactivity
21,QVQLVESGGGLVQAGGSLRLSCAASGIFSYYAMGWYRQAPGKERELVAAISSSGGSTYYADSVKGRFTISRDNAKNTVYLQMNSLKPEDTAVYYCNVRNYYNDYYYWGQGTQVTVSS,high polyreactivity
22,QVQLVESGGGLVQAGGSLRLSCAASGFTFEKYAMGRYIQAPGKERELDASISWSGGRTRYADSVKGRFTISRDNAKNTVYLQMNSLKPEDTAVYYCAARPLFGWRGYNYWGQGTQVTVSS,high polyreactivity

row,Sequence,polyreactivity (PSR sort gate)
1,QDQLVESGGGLVQAGGSLRLSCAASGLTFEVYAMGWYRQAPGKERELVAAISSGGGSKYYADSVKGRFTISRDNAKNTVYLQMISLKPEDTAVYYCNAVAKLYYWRYDYLGQGTQVTVSS,low polyreactivity
2,QVQLVESGGGLVQAGGSLRLRCAASGRTFRRNAMGWYRQAPGKERELVAGISWGGGSTYYADSVKGRFTISRDNAKNTVYLQMNSLKPEDTAVYYCAASGYFYRAYGYWGQGTQVTVSS,high polyreactivity
3,QVQLVESGGGLVQARGSLRLSCAASGSTFYAYVMGWYRQATGKERELVAAISKGGGSTYYADSVKGRFTISRDNAKNTVYLQMNSLKPEDTAVYYSAAYASYSNYRKYNYWGQGTQVTVSS,high polyreactivity
4,QVQLVESGGGLVQAGGSLSLSCAASGRIFYVNAMGWYRQAPGKERELVAAISRSGSSTYYADSVKGRFTISRDNAKNTVYLQMNSLKPEDTAVYYCAARYYGRSQHHFDYWGQGTQVTVSS,high polyreactivity
5,QVQLVESCGGLVQAGGSLRLSCAASGLIFRPNAMGWYRQAPAKERELVAAISGGGGSTYYADSVKGRFTISRDNAKNTVYLQMKSLKPEDTAVYYCNARKLVNRYPVIGVETYDYWGQGTQVTVSS,low polyreactivity
6,QVQLVESGGGLVQAGGSLRLSCAASGSIFWLYAMGCYRQAPGKERELVAGISQNGGSTTYADSVKGRFTISRDNAKNTVYFQMNSLKPEDTAVYYCAAKRYGPFKYGYWGQGTQVTVSS,high polyreactivity
7,QVQLVESGGGLVQAGGSLRLSSAASGLTFPIYAMVWYTQAPGKEREFVAVITTSGGSTYYADSVKGRFTISRDNAKNTVFLQMNSLKPEDTSVYYCNARRIRHYYWGQGTQVTVSS,high polyreactivity
8,QVQLVESGGGLVQAGGSLSLSCAASGRIFNRNAMGWYRQAPGKEREFVAAISYSSGSTYYADSVKGRFTISRDNAKNTVYLQMNSLKPEDTAVYYCAAKVYNSRRNGYFGWTWGGYDYWGQGTQVTVSS,high polyreactivity
9,QVQLVESGGGLVQAGGSLRLSCAASGFTFRIYAMGWYRQAPGKERELVAAISWAGGSTFYADSVKGRFTISRDNAKNTVYLQMNSLKPEDTAVYYCAADYGYFEYDYWGQGTQVTVSS,low polyreactivity
10,QVQLVESGGGLVQAGGSLRLSCAASGIIFGGNVMGWYRQAPGKERELVAAISGGGGRTHYADSVKGRFTISRDNAKNTVYLQMNSLKPEDTAVYYCAVVTRYRYDYWGQGTQVTVSS,high polyreactivity
11,QVQLVESGGGLVQAGGSLRLSCAASGRIFLWYAMGWYRQAPGKERELVASITRSGVTTYYADSVKGRFTISRDNAKNTVYLQMNSLKPEDTAVYYCNKDFRGDAIKLDVNYWGQGTQVTVSS,low polyreactivity
12,QVQLVESGGGLVQAGGSLRLTCAASGRTFRIYAMGWYRQAPGKERELVAAITRRGGSTYYADSVKGRFTISLDNAKNTVNLQMNSLKPEDTAVYYCAAELRYGYLYPYDSWGQGTQVTVSS,high polyreactivity
13,QVQLVESGGGLVQAGGSLRLSCAASGFIFSKNAMGWSRQAPGKERELVAAISYSGGSTYYADSVKGRFTISRDNAKNTVYLQMNSLKPEDTAVNYCAAGGIYAPSSEYDSWGQGTQVTVSS,low polyreactivity
14,QVQLVESGGGLVQAGASLRLSCAASGGIFYVYDMGWYRQAPGKERELVAVITFTGGSTYYADSVKGRYTISRDNAKNSVYFQKNRLKPEDTAVYYCAADAYQSAYSGEYDVYTEYDYWGQGTQVTVSS,low polyreactivity
15,QVQLVESGGRIVQAGGSLRLRCAASGSTFHRYAMGRYRQAPGKERELVAAISRSGGSTYYADSVKGRFTISRDTAKNTVYLLMNSLKPVDTAVYYCAADRTGHGFGYWGQGTQVTVSS,high polyreactivity
16,QVQLVESGGGLVQAGGSLRLSCAASGSTFSVYAMGWYRQAPGKERELVADITRGGSTYADSVKGRFTISRDNAKNTVYLQMNSLKPEDTAVYYCAREEVTPYPLYWSTREYDYWGQGTQVTVSS,low polyreactivity
17,QVQLVESGGGLVQAGGSLRLSCAACGSTFGYNAMGWYRQAPGKERELVADISWSGGTTYYADSVKGRFTISRDNAKNTVYLQMNSLKPEDTAVYYCNARYPDRPVQGWRVEVDYWGQGTQVTVSS,high polyreactivity
18,QVQLVESGGGLVQAGGSLRLSCAASGRIFGSYAMGWYRQAPGKERELVAAINWRGGSTFYADSVKGRFTISRDNAKNTVYLQMNSLKPEDTAVYSCARRGYRQSGDYWGQGTQVTVSS,low polyreactivity
19,QVQLVESGGGLVQAGGSLRLSCAASGSTFRKYAMGWYSQAPGKERELVAAIRRNGVSTYYADSVKGRFTISLDNAKNTVYLQMNSLKPEDTAVYYCNARTKPDYDWGQGTQVTVSS,high polyreactivity
20,QVQLVESGGGLVQAGGSLRLSCAASGGTFSRYAMGWYRQAPGKERELVAAITRSGASTFYADSVKGRFTISRDNAKNTVYLQMNSLKPEDTAVYYCAADTYVYNEYDYWGQGTQVTVSS,high polyreactivity
21,QDQLVESGGGLVQAGGSLRLSCAASGYTLYTYAMGWNRQAPRKERELVAAISTGGGRTYNADSVKGRFTISRDNAKNTVYLQMICLKPEDTAVYYCAAPYRSLKTGRYDYWGQGTQVSVSS,high polyreactivity
